In paper PMC8701324, “Structural Insight into the Mechanism of PALB2 Interaction with MRG15” (Genes, 2021):
Where no end group is shown, it is not given here.

Experiments:
Conditions in all cases: both partners purified
[1] = molecular target: T1, MRG15 MRG domain, amino acids 155-323 (UniProt Q9UBU8-2 155-323); experiment: pull-down; His-tagged PALB2 peptide (0.1 mg/mL) bound to Ni-NTA beads, MRG15 155-323 (0.1 mg/mL) added for 30 min; Buffer B (25 mM HEPES pH 7.5, 10% glycerol, 2 mM CHAPS, 300 mM NaCl), washes with 20 mM imidazole, elution with 250 mM imidazole, SDS-PAGE
T1 construct: MRG15 (Morf-related gene on chromosome 15), MRG domain, amino acids 155-323; Cloned into the pET28b+-based pSMT3 vector; also called MRG15^155-323; MRG15 fragment; source: E. coli BL21*, purified (Ni-NTA, SUMO tag cleaved with Ulp1, second Ni-NTA flowthrough); not shown: 6xHis, N-terminal, cleaved; SUMO, N-terminal, cleaved

[2] = molecular target: T1, MRG15 MRG domain, amino acids 155-323; experiment: fluorescence polarisation; fluorescence anisotropy competition; mutant PALB2 597-630 peptides serially diluted from 10 uM to 0.6 nM against a preformed complex of MRG15 and FAM-PALB2; 25 mM HEPES pH 8.0, 1 mM TCEP, 10% DMSO, 200 mM NaCl; room temperature
[3] = molecular target: T1, MRG15 MRG domain, amino acids 155-323; experiment: fluorescence polarisation; fluorescence anisotropy; MRG15 fragment serially diluted from 10 uM to 0.6 nM against 10 nM FAM-PALB2 597-630; 25 mM HEPES pH 8.0, 1 mM TCEP, 10% DMSO, 200 mM NaCl; four-parameter logistic fit, EC50 taken as Kd

T1 sequence (Q9UBU8 194-362): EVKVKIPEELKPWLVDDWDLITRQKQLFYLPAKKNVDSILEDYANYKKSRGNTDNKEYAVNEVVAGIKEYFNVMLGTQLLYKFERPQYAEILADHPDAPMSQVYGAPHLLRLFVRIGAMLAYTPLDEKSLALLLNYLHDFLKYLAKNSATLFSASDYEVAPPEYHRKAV

B1: 6xHis-PALB2^597-630 (peptide, UniProt Q86YC2 597-630, looked up)
chain: MLSLKQLLSFLSITDFQLPDEDFGPLKLEKVKSC
notes: Cloned into pMCSG7; also called His-tagged PALB2 peptide; source: E. coli BL21*, purified (Ni-NTA from 8 M urea, washed down to 1 M urea); not shown: 6xHis, N-terminal, kept
[1]
  binding result: binds

B2: PALB2^597-630 peptide Pro615Ser (peptide, UniProt Q86YC2 597-630, looked up)
peptide: MLSLKQLLSFLSITDFQLSDEDFGPLKLEKVKSC
notes: also called Pro615 to serine; source: synthetic peptide, bought: Genscript Biotech
[2]
  fold reduction in binding affinity against the wild-type peptide: 5 fold

B3: fluorescein-labeled PALB2^597-630 peptide (peptide, UniProt Q86YC2 597-630, looked up)
peptide: MLSLKQLLSFLSITDFQLPDEDFGPLKLEKVKSC
modifications: also: fluorescein (FAM) label, position not given here
notes: also called FAM-PALB2; source: synthetic peptide, bought: Genscript Biotech
[3]
  Kd: 23.4 ± 5 nM

B4: PALB2^597-630 peptide Asp616His (peptide, UniProt Q86YC2 597-630, looked up)
peptide: MLSLKQLLSFLSITDFQLPHEDFGPLKLEKVKSC
notes: also called Asp616 with histidine; source: synthetic peptide, bought: Genscript Biotech
[2]
  fold reduction in binding affinity against the wild-type peptide: 2 fold

B5: PALB2^597-630 peptide Pro621Thr (peptide, UniProt Q86YC2 597-630, looked up)
peptide: MLSLKQLLSFLSITDFQLPDEDFGTLKLEKVKSC
notes: also called Pro621 by threonine; source: synthetic peptide, bought: Genscript Biotech
[2]
  binding result: binds
